Laboratory results reported in paper PMC9728394, “Molecular Docking and Kinetic Studies of the A226N Mutant of Deinococcus geothermalis Amylosucrase with Enhanced Transglucosylation Activity” (Journal of Microbiology and Biotechnology, 2020).

Experiments:
[1] = tested on: OC[C@H]1O[C@@](CO)(O[C@H]2O[C@H](CO)[C@@H](O)[C@H](O)[C@H]2O)[C@@H](O)[C@@H]1O; assay: HPLC of 4-methylumbelliferone glucoside, initial velocities, Lineweaver-Burk fit; type: biochemical, Deinococcus geothermalis; details: donor, 0.4-200 mM, 1 mM 4-methylumbelliferone as acceptor, 50 mM Tris-HCl pH 8.0, 45°C
Source text: (§1) HPLC of 4-methylumbelliferone glucoside, initial velocities, Lineweaver-Burk fit on DgAS (WT DgAS)

Cc1cc(=O)oc2cc(O)ccc12 = assay: as above; type: biochemical, Deinococcus geothermalis; details: acceptor, 0.1-1.0 mM, 200 mM sucrose as donor, 50 mM Tris-HCl pH 8.0, 45°C
Source text: as §1

Substance | Km [1] | kcat [1] | kcat/Km [1] | Km (Cc1cc(=O)oc2cc(O)ccc12) | kcat (Cc1cc(=O)oc2cc(O)ccc12) | kcat/Km (Cc1cc(=O)oc2cc(O)ccc12)
DgAS (WT DgAS) (Deinococcus geothermalis DSM 11300) | 36.174 ± 2.037 mM | 0.1096 s⁻¹ | 3.03 M⁻¹ s⁻¹ |  |  | 
DgAS (WT DgAS) (Deinococcus geothermalis DSM 11300; A226N) | 44.570 ± 4.625 mM | 0.1139 s⁻¹ | 2.55 M⁻¹ s⁻¹ | 2.718 ± 0.655 mM | 0.28778 s⁻¹ | 106 M⁻¹ s⁻¹
